Laboratory results as given in patent publication US5989519A, “Technetium-99m labeled peptides for imaging inflammation” (Diatide, Inc., priority 1994, dated 1999).
Numbered stars: 1 amine (or outer) side, 2 acyl side, 3 side chain; on linkers, the order of the positions; unused ones are H or OH. Square brackets hold non-standard residues; d marks the D form. Ends that are not written are not given here. Peptide text beside a SMILES is read from it. * marks the point of attachment. BAT = N6,N9-bis(2-methyl-2-mercaptopropyl)-6,9-diazanonanoic acid (chelator), CC(C)(S)CNCCN(CCCCC(=O)*)CC(C)(C)S; C(Acm) = CC(=O)NCSC[C@H](N[*:1])C(=O)[*:2]; X1 = CC(C)(S)CNCCN(CCCCC(=O)*)CC(C)(C)S; pGlu = O=C1CC[C@@H](C(=O)O)N1; Picolinoyl = O=C(c1ccccn1)*; Acm = CC(=O)NC*; For = O=C*

Experiments:
infected muscle tissue = test: in vivo; parameters: species or system New Zealand white rabbits; conditions: rabbit; for Blood (% ID/g) / Control Muscle (% ID/g): iv
Procedure: (§1) After 24 h, the animals were sedated by i.m. injection of ketamine and xylazine, and then injected i.v. with Tc-99m labeled peptide (≤150 μg, 2-10 mCi). The animals were positioned supine in the field of view of a gamma camera (LEAP colimator/photopeaked for Tc-99m) and imaged over the first hour post-injection, and then at approximately 1 h intervals over the next three hours post injection. Animals were allowed to recover between image acquisitions and re-anesthetized as needed.
(§2) Upon completion of the final imaging, each animal was sacrificed by overdose of phenobarbital i.v. and dissected to obtain samples of blood and of infected and control muscle tissue. The tissue samples were weighed, and along with a standard amount of the injected dose, were counted using a gamma counter, and the percent injected dose (per gram of tissue) remaining in the tissues was determined. Ratios of percent of injected dose per gram of infected versus non-infected muscle tissue, and of infected muscle tissue versus blood, were calculated for each peptide. Scintiphotos of whole body and leg images of a rabbit injected with a Tc-99m labeled reagent of the invention, having the formula

in vivo = test: in vivo; parameters: species or system New Zealand white rabbits; conditions: rabbit, iv
Procedure: as §1, §2

[1] = New Zealand white, total radioactivity, Blood (% ID/g)
[2] = New Zealand white, total radioactivity, Control Muscle (% ID/g)

Molecule | Ratio of Infected/Blood (infected muscle tissue) | Ratio of Infected/Control (infected muscle tissue) | Blood (% ID/g) (infected muscle tissue) | Control Muscle (% ID/g) (infected muscle tissue) | tissue uptake (in vivo; [1]) [%ID/g] | tissue uptake (in vivo; [2]) [%ID/g] | tissue uptake (in vivo; Blood (% ID/g)) [%ID/g] | tissue uptake (in vivo; Control Muscle (% ID/g)) [%ID/g]
CAcm GCAcm (VGVAPG)3 amide (C(Acm)GC(Acm)VGVAPGVGVAPGVGVAPG-NH2; also: Tc-99m label) | 1.69 | 3.94 | 0.011 | 0.0017 | – | – | – | –
[BAT].GGPLYKKIIKKLLES ({BAT}-GGPLYKKIIKKLLES; also: Tc-99m label) | 0.50 | 7.00 | 0.004 | 0.0003 | – | – | – | –
CC(C)C[C@H](NC(=O)C1(NC=O)CCSCC1)C(=O)N[C@@H](Cc1ccccc1)C(=O)NCCCCCN(CCNCC(C)(C)S)CC(C)(C)S [formyl.Thp.LF.[BAM]] | 0.83 | 4.80 | – | – | 0.006 | 0.001 | – | –
CAcm GCAcm TKPR (C(Acm)GC(Acm)TKPR; also: Tc-99m label) | 2.07 | 2.40 | 0.003 | 0.0025 | – | – | – | –
[BAT].(VPGVG)4 amide ({BAT}-VPGVGVPGVGVPGVGVPGVG-NH2; also: Tc-99m label) | 1.68 | 5.33 | 0.002 | 0.0006 | – | – | – | –
CSCC[C@H](NC=O)C(=O)N[C@@H](CC(C)C)C(=O)N[C@@H](Cc1ccccc1)C(=O)N[C@@H](CCCCNC(=O)CCCCN(CCNCC(C)(C)S)CC(C)(C)S)C(N)=O (99mTc complex, metal not drawn) [formyl.MLFK.[BAT]amide, formyl.MLFK.[BAT].amide] (For-MLFK(X1)-NH2) | 3.58 | 7.68 | – | – | – | – | 0.006 | 0.0028
CCCC(CCC)(NC(=O)[C@H](CCSC)NC=O)C(=O)N[C@@H](Cc1ccccc1)C(=O)NCCCCCN(CCNCC(C)(C)S)CC(C)(C)S [formyl.M.Dpg.F.[BAM], formyl.M.DpgF.[BAM]] | 3.53 | 15.14 | – | – | 0.003 | 0.0007 | – | –
pGlu.GVNDNEEGFFSARCAcm GCAcm amide ([pGlu]GVNDNEEGFFSARC(Acm)GC(Acm)-NH2; also: Tc-99m label) | 0.68 | 5.68 | 0.024 | 0.0029 | – | – | – | –
(acetyl.CCAcm GCAcm PLYKKIIKKLLES)2.BSME ({Ac-Cys-C(Acm)-Gly-C(Acm)}-PLYKKIIKKLLES; also: dimer via BSME, Tc-99m label) [(Ac.CCAcm GCAcm PLYKKIIKKLLES)2 BSME] | 0.84 | 7.45 | 0.010 | 0.0011 | – | – | – | –
acetyl.KKKKKCAcm GCAcm GGPLYKKIIKKLLES (Ac-KKKKKC(Acm)GC(Acm)GGPLYKKIIKKLLES; also: Tc-99m label) [Ac.KKKKKCAcm GCAcm GGPLYKKIIKKLLES] | 0.93 | 5.60 | 0.006 | 0.0019 | – | – | – | –
acetyl.CGGGPLYKKIIKKLLES (Ac-CGGGPLYKKIIKKLLES) [Ac.CGGGPLYKKIIKKLLES] | 0.74 | 4.70 | 0.032 | 0.0050 | – | – | – | –
acetyl.CAcm GCAcm GGG(VPGVG)4 amide (Ac-C(Acm)GC(Acm)GGGVPGVGVPGVGVPGVGVPGVG-NH2; also: Tc-99m label) [Ac.CAcm GCAcm GGG(VPGVG)4 amide] | 0.63 | 3.97 | 0.049 | 0.0077 | – | – | – | –
Pic.GC(VGVAPG)3 amide (Picolinoyl-GCVGVAPGVGVAPGVGVAPG-NH2; numbers in words are those of the source; also: Tc-99m label) [PicGC(VGVAPG)3 amide] | 0.69 | 5.58 | 0.015 | 0.0019 | – | – | – | –
